Source: patent publication US20240029824A1 (University of Washington, published 2024)
One block for each binder: values may come before it.

Key:
DHT01-4arm-01 chain C [1] = biological target: T1, DHT01-4arm-01 chain C; assay: co-expression, pull-downs, SEC, native MS, SAXS; chains of one ABC heterotrimer
T1 construct: also called DHT01-4arm-02 chain C; C2-DHT01-01 chain B
T1 chain: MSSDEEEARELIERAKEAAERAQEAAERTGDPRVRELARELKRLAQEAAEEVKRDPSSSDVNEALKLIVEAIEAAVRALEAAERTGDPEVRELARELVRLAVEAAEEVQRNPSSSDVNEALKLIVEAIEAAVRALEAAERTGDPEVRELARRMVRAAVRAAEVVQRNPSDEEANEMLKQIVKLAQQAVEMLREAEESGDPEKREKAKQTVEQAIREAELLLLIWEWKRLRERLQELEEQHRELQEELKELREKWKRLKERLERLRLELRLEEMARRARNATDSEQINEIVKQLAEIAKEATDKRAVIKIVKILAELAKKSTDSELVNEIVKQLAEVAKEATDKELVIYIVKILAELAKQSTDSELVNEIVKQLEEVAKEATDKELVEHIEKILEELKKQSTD

[2] = biological target: T2, DHT03 chain C (SEQ ID NO: 59); assay: chains mixed and annealed, SEC, negative stain EM; A4B4C4 ring
T2 chain: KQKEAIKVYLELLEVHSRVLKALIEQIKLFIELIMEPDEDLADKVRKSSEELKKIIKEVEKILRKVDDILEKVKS

DHT01-4arm-01 chain C [3] = biological target: T1, DHT01-4arm-01 chain C; assay: bicistronic expression, SAXS, negative stain EM; A2B2 ring
[4] = biological target: T2, DHT03 chain C (SEQ ID NO: 59); assay: X-ray crystal structure, 3.35 A
Description: Purified DHT03_2arm_A21/B21/C (long) protein at a concentration of 41 mg/mL was used to conduct sitting drop, vapor-diffusion crystallization trials using the JCSG Core I-IV screens (NeXtal Biotechnologies). Crystals of DHT03_2arm_A21/B21/C long grew from drops consisting of 100 nL protein plus 100 nL of a reservoir solution consisting of 2M (NH4)2SO4, 0.1M sodium acetate pH4.6 at 18° C., and were cryoprotected by supplementing the reservoir solution with 2.2M sodium malonate pH5. Native diffraction data was collected at APS beamline APS-23-ID-B, indexed to P1 and reduced using XDS⁴⁸. The structure was phased by molecular replacement using Phaser™. The chain A of a set of ˜49 lowest energy predicted models from Rosetta™ were used as search models. Several of these models gave clear solutions. Chain B and Chain C were fitted manually in Coot™ and rigid body refinement by Phenix™. The following model building and refinement were done by Coot™ and Phenix™.

[5] = biological target: T3, DHT03_3arm_A21/B21/C82 chain C; assay: three components purified separately, mixed equimolar, heat annealed, SEC, negative stain EM
T3 construct: also called chain C DHR82 fusion; chain C of C3-DHT03-01-DHR82 and C4-DHT03-01-DHR82
T3 chain: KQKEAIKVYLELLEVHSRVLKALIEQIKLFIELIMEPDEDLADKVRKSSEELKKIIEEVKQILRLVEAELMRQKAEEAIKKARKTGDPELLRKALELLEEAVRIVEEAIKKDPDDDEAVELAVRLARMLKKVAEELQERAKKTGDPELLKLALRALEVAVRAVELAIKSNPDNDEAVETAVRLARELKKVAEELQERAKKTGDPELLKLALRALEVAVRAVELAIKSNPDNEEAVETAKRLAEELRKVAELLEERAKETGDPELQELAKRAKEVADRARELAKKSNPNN
Description: As is evident from the images in FIGS. 4c and 4d, the cyclic structures retain one of the original heterotrimer helical hairpins in each corner; these short, outward facing protein chains provide fusion points for further elaboration of higher order symmetric assemblies. To evaluate the potential for building up larger nanostructures using the rings as hubs, and explore the modularity of the designed building blocks, we replaced the original outward facing chain C helical hairpin with the chain C DHR82 fusion (as it was the largest 4-repeat DHR) from FIG. 3d, row 8. This was done for two designs (C3-DHT03-01 and C4-DHT03-01), with chain C replaced by fusion C82 through expressing and purifying the three components separately, mixing them in equal molar quantities, and reconstituting using heat annealing.
An AKTA PURE FPLC system was used. Heterotrimer bases, arm extensions, coiled coil C2 rings, and all constructs mentioned in SI were passed through a Cytvia Superdex S200 Increase 10/300 GL column, while C3/C4 rings made from DHT03 were passed through a Cytvia Superdex S6 Increase 10/300 GL column. The mobile phase was TBS (25 mM Tris-HCl pH 8.0, 100 mM NaCl or 25 mM Tris-HCl pH 8.0, 150 mM NaCl). Samples ran at a flow rate of 0.75 ml/min and fractions were collected at 0.5 ml.

[6] = biological target: T2, DHT03 chain C (SEQ ID NO: 59); assay: chains mixed and annealed, SEC, negative stain EM; A3B3C3 ring
[7] = biological target: T4, DHT05_3arm_A62/B71/C62 chain C; assay: SEC and SAXS; chains of one ABC heterotrimer
T4 chain: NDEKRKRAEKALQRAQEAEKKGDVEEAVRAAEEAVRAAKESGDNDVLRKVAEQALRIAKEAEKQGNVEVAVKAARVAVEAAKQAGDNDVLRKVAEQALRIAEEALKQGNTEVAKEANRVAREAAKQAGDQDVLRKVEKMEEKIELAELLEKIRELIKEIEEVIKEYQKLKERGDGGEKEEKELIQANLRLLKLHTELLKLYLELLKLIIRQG

B1: DHT01-4arm-01 chain B (designed binder)
chain: SEQERREKAKEEVRELNEEFKEAEKRFRKLQEETKKALEEVEELNQRFQEALTEVAAKKLALEISRVIKTLKESGSSYEEIAEIVARIVAEIVEALKRSGASEKDIATIVAAIISAVIQTLKESGSSYEVIAEIVARIVAEIVEALKRSGTSEDEIAEIVARVISEVIRTLKESGSSYEVIKEIVQRIVEEIVEALKRSGTSEDEINEIVRRVKSEVERTLKESGSS
notes: Strep-tag II was added to the N-terminus of chain B of DHT01 arms
binding result (DHT01-4arm-01 chain C [1]): binds

B2: C4-DHT03-02 chain B (designed binder)
chain: MGTTNFHLINGSEEARQIIEKIVEEVARKAGTEVHFEKSDGTLEIRVKNLHEELERRIKKAIEAALAAQIAKKLAEQIERQLSNTELAKEAKKLATEAEKARDSEAVQVVLLALEIVQQLPDTELAKEALELAEEAVKSTDSEALKVVKLALEIVQQLPDTELAREALELAKEAVKSTDSEALKVVYLALRIVQQLPDTELARLALELAKKAVEMTAQEVLEIARAALKAAQAFPNTELAELMLRLAEVAARVMKELERNDEEIKKSDELDDESLLEDIVELLKEIIKLWKILVEVSDVMLKLIS
notes: four copies in the A4B4C4 ring
binding result [2]: binds

B3: C2-DHT01-02 chain B (designed binder)
chain: DEEEKLRESLEEQKKRVKEIEREHEEIREALKRLQQSVLRQAVRLAKLGDDSEMIQRIVEDLARQAMEATDDREVEKIEKALDELAKNSTDEELKKVIKVAKTLVRVAKLVKEAEELLRQAKEKGSEEDLEKALRTAEEAAREAKKVLEEAEKAQIAEAALLAVELVVRVAELLLRIAKESGSEEALERALRVAEEAARLAKRVLELAEKQGDPEVALRAVELVVRVAELLLRIAKESGSSEALTRAWRVAIEAFQLAVRVLKLAQKQNDSEVARRATELMKRVAELMERIARESGSSAFKAAAEALEAAARTNDKEVVDLARELARLAIEALEEVERNSKSSDVNRALKLILRAIKAAVQLLEHAEKSGDPEVRELARELVRRLVEAAEEVQRNPSDEQKNTQLRRLIAKAEVWLLNEEFKEAEKRFRKLQEETKKALEEVEELNQRFEEALEEVERIKRRQK
notes: two copies in the A2B2 ring
binding result (DHT01-4arm-01 chain C [3]): binds

B4: DHT03_2arm_A21/B21/C long chain B (designed binder)
chain: SEKEKVEELAQRIREQLPDTELAREAQELADEARKSDDSEALKVVYLALRIVQQLPDTELAREALELAKEAVKSTDSEALKVVELALKIVQQLPDTELAKEALELAKEAVKSTDSEALKVVELALEIVQQLPDTELAKEALKLAKEAVKSTDSEALKVVYLALRIVQQLPDTELAREALELAKEAVKSTDSEQLEVVRLALEIVQLAPDTRLARAALKLAKEAVKSTDQEELKKVKAILRVASEVLKLEEEAKKSQEEVERLKQEVEKASKAGLDHEGDSRIFKKIHDVVTKQIKVILRLIAVYAELVAIIG
binding result [4]: binds

Next, values leading:

binding result (DHT01-4arm-01 chain C [3]): binds
B5: C2-DHT01-01 chain A (designed binder)
chain: DEEEKLRESLEEQKKRVKEIEREHEEIREALKRLQQSVLRQAVRLAKLGDDSEMIRRIVKDLMQQAIEATDEREVEKIKKAAEELSKNSTDEDLKKQIKAVQELVKAVETVREAKKQGDPKKVLKAAEIAMEVATWAAERNDEMIFKLAAKMAKEVAERLKEVAKKENDSALELAAEAIKAAVEALEAALRTGDPRVRELAKELVRLAKEAAEEATRDSKDSDKNEALKLIVEAIKAAVRALEAAERTGDPEVRELARELVRLAVEAAEEVLRNPSSSDVNRALKLIVRAIEAAVQLLEHAEKSGDPEVRELARELVRRLVEAAEEVQRNPSDEQKNTQLRRLIAKAEVWLLNEEFKEAEKRFRKLQEETKKALEEVEELNQRFEEALEEVERIKRRQK
notes: two copies in the A2B2 ring; ring designs kept a C-terminal His-tag in frame

binding result [2]: binds
binding result [5]: binds
B6: C4-DHT03-01 chain B (designed binder)
chain: MGTTNFHLINGSEEARQLIQKAVEAISKKEGTEVHFEKSDGTLEIRVKNLHPRQEDLIKKFIEALLLALVAKGELEQAEKEGDAEVALRAVEKVVRVAELLLRLAKEAGSEEALKAALEIAEQAARLAARVFTLAVKQNDSDVAKRAVELIKRVAELLKRIAKESGSEEAKERAEKVEKAAEVAEIAARILDQLSNTELAKEALKLASEALKSDIKEALEVVRLALRIVQQLPDTELAREALELAKEAVKSTDSEQLEVVRLALEIVQLAPDTRLARAALKLAKEAVKSTDQEELKKVKAILRVASEVLKLEEEAKKSQEEVERLKQEVEKASKAGLDHEGDSRIFKKIHDVVTKQIKVILRLIAVYAELVAIIG
notes: four copies in the A4B4C4 ring; also called C4-DHT03-01-DHR82 chain B

binding result [6]: binds
B7: C3-DHT03-02 chain B (designed binder)
chain: TWQWVLINISEEARQLIEKAVRAISKKEGTEVHFEKDDGVLHIRVKNLHEKRAREIHKVAKLILEVAAAERIVRERPGSNLAKKALEIILRAAEELAKADVDAALEAAVRAAEKVVREQPGSNLAKKALEIILRAAEELAKLPDPEALKEAVKAAEKVVREQPNSELAKKAREIIKRAAEELAKSPDKEAIQEAATALAILIELILSNTELAREAKELATEARKATDSEAAKVVFLALFIVVQLPDTELAKEALELAKEAVKSTDSEALKVVELALEIVQQLPDTELAKEALKLAKEAVKSTDSEALKVVYLALRIVQQLPDTELAREALELAKEAVKSTDSEQLEVVRLALEIVQLAPDTRLARAALKLAKEAVKSTDQEELKKVKAILRVASEVLKLEEEAKKSQEEVERLKQEVEKASKAGLDHEGDSRIFKKIHDVVTKQIKVILRLIAVYAELVAIIG
notes: three copies in the A3B3C3 ring

binding result [7]: binds
B8: DHT05_3arm_A62/B71/C62 chain B (designed binder)
chain: SEVEKRLLEIHRQVAESHRILVEVHEALIEALRGNSEEAKEKLKELVKKLEKIIRQEELLLQLLEALVKALQAKKEGDPELVLEAAKDALRVAEQAAKEGDKEMFKQAAELALWLAKQLVEVASKEGDPELVLEAAKVALRVAELAAKNGDKEVFKKAAESALEVAKRLVEVASKEGDPELVEEAAKVAEEVRKLAKKQGDEEVYEKARETAREVKEELKRVREEK

binding result (DHT01-4arm-01 chain C [3]): binds
B9: C2-DHT01-03 chain A (designed binder)
chain: MGDEEEKLRESLEEQKKRVKEIEREHEEIREALKRLQQSVLRQAVRLAKLGDDSRMIASIIRDLVKQALRATDEREQKKIKKALEELAQNATDEALKLLIEAAKSLLRAAEASERGDEEEFRKAAEKALELAKRLVEIAKKQSLPEFVLAAAEIALAVAELAAKNNDSEVLEKALRSAAEVAQRLLEVAEKENNQELVEEAAKILKRALEIVEKAAKKLKERNDQSSDVNRALTLIRRAQEAADQLLEHARKSGDPEVWELAIRLVARLVEAAAKVAANMSDEQQNTQLRRLIAKAEVWLLNEEFKEAEKRFRKLQEETKKALEEVEELNQRFEEALEEVERIKRRQKGGSGWSHPQFEK
notes: two copies in the A2B2 ring

binding result [6]: binds
binding result [5]: binds
B10: C3-DHT03-01 chain B (designed binder)
chain: NTHFIVVHGGEEARQLAETAVREISKKEGTEVRFEKKDGLLSIEVKNLSEELQRLIQELLQLLVRLAALLEAVRAVEEAIKRNPDNDEAVETAVRLARELKKVAELLQELAKKAGVPAILRGALLALEVAVRAVELAIKSNPDNDEAVETAVRLAVVKLALEIVQQLPDTELAREALELAKEAVKSTDSEALKVVYLALRIVQQLPDTELARLALELAKKAVEMTAQEVLEIARAALKAAQAFPNTELAELMLRLAEVAARVMKELERNDEEIKKSDELDDESLLEDIVELLKEIIKLWKILVEVSDVMLKLIS
notes: three copies in the A3B3C3 ring; also called C3-DHT03-01-DHR82 chain B
